Assays:
[1] = biological target: cyclin T1 (P-TEFb component), O60563
[2] = biological target: histone H3 (histones isolated from HEK293T cells)
[3] = biological target: CDK9 (P-TEFb component), P50750
[4] = biological target: T1, full-length synthetic Tat protein (aa 1-72)
T1 chain: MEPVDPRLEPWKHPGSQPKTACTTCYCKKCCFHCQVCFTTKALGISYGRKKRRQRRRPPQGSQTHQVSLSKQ

[5] = biological target: histone H1 (purified human histones isolated from HEK293T cells), P07305
Sequence of histone H1 (purified human histones isolated from HEK293T cells), P07305 (P07305 whole entry, looked up): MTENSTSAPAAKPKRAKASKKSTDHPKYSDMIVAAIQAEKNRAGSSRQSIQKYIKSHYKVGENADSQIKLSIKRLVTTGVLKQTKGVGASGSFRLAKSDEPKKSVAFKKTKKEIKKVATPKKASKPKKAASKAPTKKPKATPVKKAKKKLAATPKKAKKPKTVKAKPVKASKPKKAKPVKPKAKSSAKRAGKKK

Sequence of CDK9 (P-TEFb component), P50750 (P50750 whole entry, the tested form may be a part): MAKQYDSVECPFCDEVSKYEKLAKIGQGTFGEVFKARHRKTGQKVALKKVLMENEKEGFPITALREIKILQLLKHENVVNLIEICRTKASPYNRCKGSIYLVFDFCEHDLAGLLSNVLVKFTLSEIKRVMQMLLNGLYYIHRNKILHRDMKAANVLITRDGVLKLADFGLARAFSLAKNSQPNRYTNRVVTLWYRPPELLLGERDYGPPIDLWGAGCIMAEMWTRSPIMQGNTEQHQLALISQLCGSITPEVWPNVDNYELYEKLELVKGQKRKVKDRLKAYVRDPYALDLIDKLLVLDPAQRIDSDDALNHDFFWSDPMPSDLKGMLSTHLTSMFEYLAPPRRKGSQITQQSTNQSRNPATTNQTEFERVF
Sequence of cyclin T1 (P-TEFb component), O60563 (O60563 whole entry): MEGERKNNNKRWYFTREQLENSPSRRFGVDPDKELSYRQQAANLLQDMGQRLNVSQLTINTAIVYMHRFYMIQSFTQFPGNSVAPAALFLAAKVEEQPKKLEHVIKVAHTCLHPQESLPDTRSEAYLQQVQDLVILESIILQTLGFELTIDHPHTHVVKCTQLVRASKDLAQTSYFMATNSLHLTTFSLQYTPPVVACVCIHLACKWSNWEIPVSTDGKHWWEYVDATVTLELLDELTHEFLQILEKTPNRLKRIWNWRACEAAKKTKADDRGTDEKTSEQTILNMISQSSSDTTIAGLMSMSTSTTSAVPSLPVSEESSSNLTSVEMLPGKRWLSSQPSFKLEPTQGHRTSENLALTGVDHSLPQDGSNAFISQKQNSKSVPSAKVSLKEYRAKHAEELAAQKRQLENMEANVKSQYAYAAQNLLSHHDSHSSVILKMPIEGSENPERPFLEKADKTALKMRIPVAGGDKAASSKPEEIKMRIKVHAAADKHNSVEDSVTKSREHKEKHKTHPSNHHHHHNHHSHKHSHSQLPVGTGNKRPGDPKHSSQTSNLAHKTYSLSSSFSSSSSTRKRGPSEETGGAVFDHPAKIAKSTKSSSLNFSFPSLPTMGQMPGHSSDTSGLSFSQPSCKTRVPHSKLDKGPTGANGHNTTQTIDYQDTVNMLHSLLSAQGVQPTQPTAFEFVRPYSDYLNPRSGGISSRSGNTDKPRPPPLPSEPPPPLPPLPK
Sequence of Sp1, P08047 (P08047 whole entry): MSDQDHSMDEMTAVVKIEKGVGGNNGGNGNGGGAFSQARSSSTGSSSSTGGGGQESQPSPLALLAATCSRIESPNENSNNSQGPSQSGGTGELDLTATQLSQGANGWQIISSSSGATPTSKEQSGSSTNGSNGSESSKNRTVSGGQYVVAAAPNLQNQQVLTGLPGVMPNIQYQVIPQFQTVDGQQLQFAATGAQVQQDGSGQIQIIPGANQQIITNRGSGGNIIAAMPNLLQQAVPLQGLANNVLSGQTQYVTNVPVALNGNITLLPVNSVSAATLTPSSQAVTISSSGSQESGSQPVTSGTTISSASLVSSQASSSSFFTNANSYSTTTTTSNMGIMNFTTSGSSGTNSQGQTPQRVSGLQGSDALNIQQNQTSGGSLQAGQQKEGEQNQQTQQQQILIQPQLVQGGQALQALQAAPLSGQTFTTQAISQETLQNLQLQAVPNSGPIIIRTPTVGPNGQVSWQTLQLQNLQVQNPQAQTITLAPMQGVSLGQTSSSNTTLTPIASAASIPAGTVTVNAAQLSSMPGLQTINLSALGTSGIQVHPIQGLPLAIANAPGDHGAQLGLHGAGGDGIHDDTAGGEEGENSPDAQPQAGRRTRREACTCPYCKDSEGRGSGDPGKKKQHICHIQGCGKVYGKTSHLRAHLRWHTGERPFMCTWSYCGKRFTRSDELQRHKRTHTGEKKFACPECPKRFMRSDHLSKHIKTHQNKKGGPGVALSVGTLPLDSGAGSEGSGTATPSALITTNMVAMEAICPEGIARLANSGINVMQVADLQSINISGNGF
Sequence of NF-kB p65 (RelA), Q04206 (Q04206 whole entry): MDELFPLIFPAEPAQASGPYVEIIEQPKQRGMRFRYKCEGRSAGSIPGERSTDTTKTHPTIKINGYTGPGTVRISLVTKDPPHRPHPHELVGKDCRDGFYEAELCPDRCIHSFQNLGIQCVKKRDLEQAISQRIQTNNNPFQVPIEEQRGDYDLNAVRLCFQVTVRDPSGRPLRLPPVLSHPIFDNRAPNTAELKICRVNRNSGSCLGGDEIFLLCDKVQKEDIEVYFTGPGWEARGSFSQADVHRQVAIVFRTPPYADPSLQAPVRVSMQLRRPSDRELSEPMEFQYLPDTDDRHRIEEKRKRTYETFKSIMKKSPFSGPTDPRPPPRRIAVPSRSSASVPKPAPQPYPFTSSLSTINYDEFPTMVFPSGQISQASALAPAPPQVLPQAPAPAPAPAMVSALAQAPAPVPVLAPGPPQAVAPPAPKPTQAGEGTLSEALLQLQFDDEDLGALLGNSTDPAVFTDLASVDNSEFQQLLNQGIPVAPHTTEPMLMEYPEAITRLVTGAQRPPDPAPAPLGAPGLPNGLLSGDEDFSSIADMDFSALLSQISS

B1: recombinant full-length SMYD5 (SET and MYND domain-containing protein 5) (protein)
chain: MAASMCDVFSFCVGVAGRARVSVEVRFVSSAKGKGLFATQLIRKGETIFVERPLVAAQFLWNALYRYRACDHCLRALEKAEENAQRLTGKPGQVLPHPELCTVRKDLHQNCPHCQVMYCSAECRLAATEQYHQVLCPGPSQDDPLHPLNKLQEAWRSIHYPPETASIMLMARMVATVKQAKDKDRWIRLFSQFCNKTANEEEEIVHKLLGDKFKGQLELLRRLFTEALYEEAVSQWFTPDGFRSLFALVGTNGQGIGTSSLSQWVHACDTLELKPQDREQLDAFIDQLYKDIEAATGEFLNCEGSGLFVLQSCCNHSCVPNAETSFPENNFLLHVTALEDIKPGEEICISYLDCCQRERSRHSRHKILRENYLFVCSCPKCLAEADEPNVTSEEEEEEEEEEEGEPEDAELGDEMTDV
- in vitro methylation (3H-SAM, autoradiography) (NF-kB p65 (RelA), Q04206): no methylation was detected for Re1A, Sp1, cyclin T1 and CDK9
- in vitro methylation (3H-SAM, autoradiography) [1]: no methylation was detected for Re1A, Sp1, cyclin T1 and CDK9
- in vitro methylation (3H-SAM, autoradiography) [2]: histones H3 and H1 were weakly and Tat strongly methylated by SMYD5
- in vitro methylation (3H-SAM, autoradiography) [3]: no methylation was detected for Re1A, Sp1, cyclin T1 and CDK9
- LC-MS/MS of in vitro methylation products (non-radiolabeled SAM) [4]: This analysis identified a single site, trimethylation of K41, identified in two distinct peptides (not shown). No mono or dimethylation at Tat K41 was observed.
- in vitro methylation (3H-SAM, autoradiography) [4]: histones H3 and H1 were weakly and Tat strongly methylated by SMYD5
- in vitro methylation (3H-SAM, autoradiography) (Sp1, P08047): no methylation was detected for Re1A, Sp1, cyclin T1 and CDK9
- in vitro methylation (3H-SAM, autoradiography) [5]: histones H3 and H1 were weakly and Tat strongly methylated by SMYD5

From patent US20180002699
